Data reported in PMC11497598.

Assays:
Experiment in all cases: analytical SEC
Conditions in all cases: cell culture supernatant of Expi293F cells; parent: est. 72; read off a plot
[1] = target: B/Iowa/06/2017 HA HA2 111L
[2] = target: B/Iowa/06/2017 HA HA2 H22F
[3] = target: B/Iowa/06/2017 HA HA2 91V
[4] = target: B/Iowa/06/2017 HA HA2 67A
[5] = target: B/Iowa/06/2017 HA HA2 H114N
[6] = target: B/Iowa/06/2017 HA HA2 E113N
[7] = target: B/Iowa/06/2017 HA HA2 H114F
[8] = target: B/Iowa/06/2017 HA HA1 T218I
[9] = target: B/Iowa/06/2017 HA HA1 152W
[10] = target: B/Iowa/06/2017 HA HA1 T211L
[11] = target: B/Iowa/06/2017 HA HA2 H22W

“wild-type soluble hemagglutinin (HA) of influenza B/Iowa/06/2017 HA2:111L” was tested, and the other: trimer fraction [1] was 55%.

“wild-type soluble hemagglutinin (HA) of influenza B/Iowa/06/2017 HA2:H22F” showed an other: trimer fraction [2] of 91%.

Substance “wild-type soluble hemagglutinin (HA) of influenza B/Iowa/06/2017 HA2:91V” has an other: trimer fraction [3] of 77%.

In the case of “wild-type soluble hemagglutinin (HA) of influenza B/Iowa/06/2017 HA2:67A”, the other: trimer fraction [4] is reported as 64%.

Substance “wild-type soluble hemagglutinin (HA) of influenza B/Iowa/06/2017 HA2:H114N” has an other: trimer fraction [5] of 57%.

“wild-type soluble hemagglutinin (HA) of influenza B/Iowa/06/2017 HA2:E113N” gave an other: trimer fraction [6] of 96%.

“wild-type soluble hemagglutinin (HA) of influenza B/Iowa/06/2017 HA2:H114F” gave an other: trimer fraction [7] of 75%.

“wild-type soluble hemagglutinin (HA) of influenza B/Iowa/06/2017 HA1:T218I” gave an other: trimer fraction [8] of 82%.

“wild-type soluble hemagglutinin (HA) of influenza B/Iowa/06/2017 HA1:152W” gave an other: trimer fraction [9] of 81%.

For “wild-type soluble hemagglutinin (HA) of influenza B/Iowa/06/2017 HA1:T211L”, the other: trimer fraction [10] was 95%.

Substance “wild-type soluble hemagglutinin (HA) of influenza B/Iowa/06/2017 HA2:H22W” has an other: trimer fraction [11] of 81%.
